T1: ENTPD2 (Homo sapiens, UniProt Q9Y5L3)
T1 sequence (Q9Y5L3 1-495): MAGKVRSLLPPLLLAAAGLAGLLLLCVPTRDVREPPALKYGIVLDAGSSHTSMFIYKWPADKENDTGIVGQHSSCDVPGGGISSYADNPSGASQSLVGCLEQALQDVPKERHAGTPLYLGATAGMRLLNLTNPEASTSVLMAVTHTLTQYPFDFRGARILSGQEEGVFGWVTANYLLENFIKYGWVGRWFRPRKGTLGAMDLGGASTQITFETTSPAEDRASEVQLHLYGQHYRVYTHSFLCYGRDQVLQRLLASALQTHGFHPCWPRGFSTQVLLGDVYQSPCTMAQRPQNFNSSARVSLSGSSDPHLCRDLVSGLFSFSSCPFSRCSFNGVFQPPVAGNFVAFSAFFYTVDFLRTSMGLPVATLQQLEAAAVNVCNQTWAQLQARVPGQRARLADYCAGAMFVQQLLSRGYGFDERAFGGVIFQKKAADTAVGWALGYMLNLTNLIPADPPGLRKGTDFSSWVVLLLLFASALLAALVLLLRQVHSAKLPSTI

T2: mouse ENTPD2 (Mus musculus, UniProt O55026)
T2 construct: expressed in transfected cells; host or cells: NIH/3T3 (retroviral transduction)
T2 sequence (O55026 1-495): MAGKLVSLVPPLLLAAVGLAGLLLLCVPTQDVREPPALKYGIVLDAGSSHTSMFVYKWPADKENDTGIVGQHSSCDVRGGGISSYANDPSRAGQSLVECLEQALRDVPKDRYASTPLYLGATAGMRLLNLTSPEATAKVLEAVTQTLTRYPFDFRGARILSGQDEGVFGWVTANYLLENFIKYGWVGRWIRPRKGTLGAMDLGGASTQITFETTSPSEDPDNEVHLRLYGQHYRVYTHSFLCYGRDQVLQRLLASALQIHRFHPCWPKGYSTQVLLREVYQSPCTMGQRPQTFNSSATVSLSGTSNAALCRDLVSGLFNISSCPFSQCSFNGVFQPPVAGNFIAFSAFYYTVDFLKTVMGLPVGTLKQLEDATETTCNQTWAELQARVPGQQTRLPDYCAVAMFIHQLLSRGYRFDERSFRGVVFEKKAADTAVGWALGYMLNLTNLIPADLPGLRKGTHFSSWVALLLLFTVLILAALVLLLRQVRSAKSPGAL

T3: recombinant human ENTPD2 (residues 29-462) (Homo sapiens, UniProt Q9Y5L3)
T3 construct: residues 29-462 of human or cyno ENTPD2 were cloned into expression vector; GP67 signal peptide (N); made in house; host or cells: High Five (Trichoplusia ni) insect cells, baculovirus
T3 sequence (Q9Y5L3 29-462): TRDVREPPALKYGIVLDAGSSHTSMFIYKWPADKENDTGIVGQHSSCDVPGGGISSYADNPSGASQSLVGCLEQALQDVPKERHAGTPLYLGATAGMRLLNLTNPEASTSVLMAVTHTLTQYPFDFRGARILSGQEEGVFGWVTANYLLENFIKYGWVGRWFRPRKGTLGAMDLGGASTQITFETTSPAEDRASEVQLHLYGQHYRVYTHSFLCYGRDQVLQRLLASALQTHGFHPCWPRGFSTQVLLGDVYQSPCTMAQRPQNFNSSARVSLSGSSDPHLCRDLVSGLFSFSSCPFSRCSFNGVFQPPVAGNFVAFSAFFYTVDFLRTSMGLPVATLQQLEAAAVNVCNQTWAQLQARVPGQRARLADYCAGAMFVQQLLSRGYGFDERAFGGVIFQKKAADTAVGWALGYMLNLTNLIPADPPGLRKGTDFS


Columns and labels:
[1] = molecular target: T1, ENTPD2; test: Hybridoma mAb screen: cell-based assay for inhibition of ATP hydrolysis by ENTPD2; conditions: hybridoma-derived mAbs
Source text: Hybridoma-derived mAbs were screened in a cell-based assay for inhibition of ATP hydrolysis by ENTPD2.

[2] = molecular target: T2, mouse ENTPD2; test: Mouse ENTPD2 NIH/3T3 cell-based functional assay; conditions: mouse ENTPD2 NIH/3T3 cells, 100 nM
Source text: (§1) Biochemical and cell-based functional assays were developed in-house to understand functional impact of anti-ENTPD2 Abs against purified extracellular domain of ENTPD2 (residues 29-462), as well as against the fully intact protein in the context of the native cell-based conformation. ENTPD2 hydrolyzes ATP to ADP, which can subsequently be detected using the HTRF Transcreener ADP2 TR-FRET Red Assay (BellBrook Labs, Madison, Wis.) where ENTPD2-produced ADP would compete with the ADP Tracer for binding to the anti-ADP-Tb antibody. The resulting signal is inversely proportional to the concentration of ADP in the sample.
To establish cell-based functional assays, human/cyno/mouse ENTPD2-engineered NIH/3T3 cells or RKO (ATCC, Manassa Va.) colorectal cancer cells with endogenous ENTPD2 expression were plated overnight at 150, 200 and 250 cells per well for NIH/3T3 mouse, cyno and human ENTPD2 lines, respectively, or 1000 cells per well for RKO in 384-well tissue culture plate, in 30 μl per well (Perkin Elmer, Waltham, Mass.). The following day cells were pre-incubated with Anti-ENTPD2 Abs in dose response for 60 min at 37° C., 5% CO2 (10 μl of 5× antibody dose per well), and subsequently stimulated with a final concentration of 10 μM ATP (Teknova, Hollister, Calif.) for 20 minutes at room temperature (10 μl of 5× (50 μM) ATP per well). Reactions were quenched with 40 mM EDTA/40 mM EGTA, 25 μl per well, and 15 μl of quenched media was transferred to low volume Proxiplates (PerkinElmer, Waltham, Mass.) for ADP detection. ADP production was detected with the Transcreener ADP2 TR-FRET Red Assay (BellBrook Labs, Madison, Wis.) with a final concentration of 4 nM ADP2 antibody and 13.4 nM of ADP Tracer in wells (4× solution was prepared and 5 μL of “Detection Reagent Mix” was added to the quenched conditioned media). Plates were incubated with detection reagents for 1 hour at room temperature prior to reading plates in HTRF mode.
(§2) HTRF signal (Emission at 620 nm and 665 nm) was assessed in both assays using the Envision plate reader in HTRF mode (Perkin Elmer, Waltham, Mass.). HTRF ratio was determined using the following formula: HTRF ratio=R=Emission at 665 nm/Emission at 620 nm×10,000. Subsequently % Residual Activity and % Inhibition were determined as follows:
(§3) Where R0% is the HTRF ratio of the negative control (0% enzyme activity), and R100% is the HTRF ratio of the positive control (100% enzyme activity). Data were analyzed in Microsoft Excel and graphed using GraphPad's Prism 7.0 software and IC50 values were obtained using non-linear regression, log (agonist) vs. response-variable slope (four parameters) analysis.
Anti-ENTPD2 mAb13 was identified as a mouse ENTPD2 selective Ab (FACS EC50 3-4 nM) with no binding to human or cyno ENTPD2.

[3] = molecular target: T3, recombinant human ENTPD2 (residues 29-462); test: Biochemical human ENTPD2 functional assay (Transcreener ADP2 TR-FRET); conditions: FIG. 15
Source text: as §1
To evaluate activity of anti-ENTPD2 Abs in the ENTPD2 biochemical assay, anti-ENTPD2 Abs and recombinant ENTPD2 (residues 29-462) were diluted in reaction buffer (50 mM HEPES, pH 7.1, 10 mM MgCl2, 0.01% BSA) to the desired concentration. 4 μL per well of the ENTPD2 solution and 2 μL per well of the Anti-ENTPD2 Ab solution were transferred into a ProxiPlate (PerkinElmer, Waltham, Mass.) and incubated for 30 min at room temperature. Reaction was then initiated via addition of 2 μl of ATP (final assay concentration of 1 μM), and the sample was incubated for 25 min at room temperature. […]
as §2, §3

Molecule | % Inhibition at 100 nM (±Std Err) [2] [%] | inhibition of the catalytic activity of recombinant human ENTPD2 [3] | other results
mAb16: hybridoma-derived lead inhibitory anti-human ENTPD2 mAb; VH/VL DNA SEQ ID NO: 226/230 (antibody, V domains shown) VH: DIQLQESGPGLVKPSQSLSLTCSVTGYSITSGYYWNWIRQFPGNKLEWMGYISYDGDNNYNPSLKNRISITRDTSKNQFFLKLSSVTTEDTATYYCAGGYYRYGLSYYYVMDYWGQGTSVTVSS VL: DTVLTQSPASLAVSLGQRATISCKASQSVDYDGNSYMNWYQQKPGQPPKLLIYAASNLESGIPARFSGSGSGTDFTLNIHPVEEEDAATYYCQQSNEDPPTFGGGTKLEIK | – | – | inhibition of ATP hydrolysis by ENTPD2 [1]: lead inhibitory mAbs
mAb14: anti-mouse ENTPD2 antibody, T30 variant of mAb13; HC SEQ ID NO: 211, LC SEQ ID NO: 204 (antibody) heavy: QVQLVQSGAELKQPGQSVKISCKASGYTFWHYGMNWVKQAPGQGLKWMGWINTDTGNPTYADDFKGRFVFSLDTSVSTAYLQISNLKNEDTATYYCVRYGTLYSGYGFFFDSWGQGTLVTVSSAKTTAPSVYPLAPVCGDTTGSSVTLGCLVKGYFPEPVTLTWNSGSLSSGVHTFPAVLQSDLYTLSSSVTVTSSTWPSQSITCNVAHPASSTKVDKKIEPRGPTIKPCPPCKCPAPNLLGGPSVFIFPPKIKDVLMISLSPIVTCVVVDVSEDDPDVQISWFVNNVEVHTAQTQTHREDYNSTLRVVSALPIQHQDWMSGKEFKCKVNNKDLPAPIERTISKPKGSVRAPQVYVLPPPEEEMTKKQVTLTCMVTDFMPEDIYVEWTNNGKTELNYKNTEPVLDSDGSYFMYSKLRVEKKNWVERNSYSCSVVHEGLHNHHTTKSFSRTPGK light: DIMMTQSPSSLSVSAGEKATITCKSSQSLFNSNTNKNYLNWYLQKPGQSPKLLFYYASTRHTGVPDRFIGSGSGTDFTLTITSVQDEDLADYYCQQWYSYPWTFGPGTKLEIKRADAAPTVSIFPPSSEQLTSGGASVVCFLNNFYPKDINVKWKIDGSERQNGVLNSWTDQDSKDSTYSMSSTLTLTKDEYERHNSYTCEATHKTSTSPIVKSFNRNEC | 79 ± 2.2 | – | –
mAb15: anti-mouse ENTPD2 antibody, T30 variant of mAb13; HC SEQ ID NO: 218, LC SEQ ID NO: 204 (antibody) heavy: QVQLVQSGAELKQPGQSVKISCKASGYTFHHYGMNWVKQAPGQGLKWMGWINTDTGNPTYADDFKGRFVFSLDTSVSTAYLQISNLKNEDTATYYCVRYGTLYSGYGFFFDSWGQGTLVTVSSAKTTAPSVYPLAPVCGDTTGSSVTLGCLVKGYFPEPVTLTWNSGSLSSGVHTFPAVLQSDLYTLSSSVTVTSSTWPSQSITCNVAHPASSTKVDKKIEPRGPTIKPCPPCKCPAPNLLGGPSVFIFPPKIKDVLMISLSPIVTCVVVDVSEDDPDVQISWFVNNVEVHTAQTQTHREDYNSTLRVVSALPIQHQDWMSGKEFKCKVNNKDLPAPIERTISKPKGSVRAPQVYVLPPPEEEMTKKQVTLTCMVTDFMPEDIYVEWTNNGKTELNYKNTEPVLDSDGSYFMYSKLRVEKKNWVERNSYSCSVVHEGLHNHHTTKSFSRTPGK light: DIMMTQSPSSLSVSAGEKATITCKSSQSLFNSNTNKNYLNWYLQKPGQSPKLLFYYASTRHTGVPDRFIGSGSGTDFTLTITSVQDEDLADYYCQQWYSYPWTFGPGTKLEIKRADAAPTVSIFPPSSEQLTSGGASVVCFLNNFYPKDINVKWKIDGSERQNGVLNSWTDQDSKDSTYSMSSTLTLTKDEYERHNSYTCEATHKTSTSPIVKSFNRNEC | 76 ± 3.4 | – | –
mAb19: anti-human ENTPD2 antibody of Table 1; VH SEQ ID NO: 250, VL SEQ ID NO: 257 (antibody, V domains shown) VH: EVQLQQFGAELVKPGTSVKISCKASGYTFTDYNMDWVKQSHGKSLEWIGDINPNYDITTYNQRFKGKATLTVDKSSSTAYMELRSLTSEDTAVYYCARRGFFPYYGNSYYYFDVWGAGTTVTVSS VL: QIVLTQSPTIMSASLGEEITLTCSASSSVSYMHWYQQKSGTSPKLLIYSTSNLASGVPSRFSGSGSGTFYSLTISSVEAEDAADYYCHQWSNYPWTFGGGTKLEIK | – | potently inhibit | –
mAb21: anti-human ENTPD2 antibody of Table 1; VH SEQ ID NO: 281, VL SEQ ID NO: 287 (antibody, V domains shown) VH: EVQLQQSGPELVKPGASVKISCKTSGYTFTEYTMHWVKQSHGKSLEWIGGINPNNGITTYNQKFKGKATLTVDKSSSTAYMDLRSLTSEGSAVYYCARRGFPIYYYGTSLYYFDYWGQGTTLTVSS VL: QIVLTQSPAIMSASLGEEITLTCSASSSVSYMHWYQQRSGTSPKLLIYTTSNLASGVPSRFSGSGSGTFYSLTISSVEAEDAADYYCHQWSSYPWTFGGGTKLEIK | – | potently inhibit | –
